Substitutions are numbered along the chain they refer to. Numbers in names are those of the source.
T1: IL-18 receptors on HEK-Blue IL-18 reporter cells (UniProt Q13478 19-541; O95256 20-599, limits assumed)
T1 sequence (looked up) 1: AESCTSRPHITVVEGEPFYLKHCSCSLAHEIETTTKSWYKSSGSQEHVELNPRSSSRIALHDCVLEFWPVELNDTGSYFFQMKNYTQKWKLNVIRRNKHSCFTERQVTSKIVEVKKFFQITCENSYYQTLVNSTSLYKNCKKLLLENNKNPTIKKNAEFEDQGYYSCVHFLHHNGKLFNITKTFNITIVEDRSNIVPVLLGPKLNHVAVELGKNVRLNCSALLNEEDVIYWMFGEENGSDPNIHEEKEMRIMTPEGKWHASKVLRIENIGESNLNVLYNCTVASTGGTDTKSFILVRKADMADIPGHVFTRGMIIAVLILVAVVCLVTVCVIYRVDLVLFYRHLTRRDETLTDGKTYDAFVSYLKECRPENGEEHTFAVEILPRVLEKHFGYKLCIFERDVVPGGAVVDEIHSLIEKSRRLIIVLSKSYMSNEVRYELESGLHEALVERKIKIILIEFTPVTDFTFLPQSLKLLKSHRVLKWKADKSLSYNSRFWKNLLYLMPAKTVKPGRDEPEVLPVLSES
T1 sequence (looked up) 2: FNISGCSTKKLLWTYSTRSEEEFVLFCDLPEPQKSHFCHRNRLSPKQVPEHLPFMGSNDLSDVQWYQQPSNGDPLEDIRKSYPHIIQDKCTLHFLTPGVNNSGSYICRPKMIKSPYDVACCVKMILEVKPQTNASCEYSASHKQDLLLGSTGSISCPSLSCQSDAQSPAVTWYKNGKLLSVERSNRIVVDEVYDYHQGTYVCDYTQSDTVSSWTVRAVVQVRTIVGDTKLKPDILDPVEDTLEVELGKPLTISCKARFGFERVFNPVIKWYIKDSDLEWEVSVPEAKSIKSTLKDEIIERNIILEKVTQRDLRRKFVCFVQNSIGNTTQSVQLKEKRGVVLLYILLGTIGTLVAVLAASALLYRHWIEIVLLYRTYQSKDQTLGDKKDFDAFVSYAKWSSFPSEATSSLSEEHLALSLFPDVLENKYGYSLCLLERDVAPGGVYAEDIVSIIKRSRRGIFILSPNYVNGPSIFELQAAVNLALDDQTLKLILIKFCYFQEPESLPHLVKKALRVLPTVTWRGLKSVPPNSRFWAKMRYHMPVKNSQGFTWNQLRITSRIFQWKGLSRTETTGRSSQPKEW

T2: interleukin 18 binding protein (IL-18BP) (UniProt O95998 31-194)
T2 sequence (looked up): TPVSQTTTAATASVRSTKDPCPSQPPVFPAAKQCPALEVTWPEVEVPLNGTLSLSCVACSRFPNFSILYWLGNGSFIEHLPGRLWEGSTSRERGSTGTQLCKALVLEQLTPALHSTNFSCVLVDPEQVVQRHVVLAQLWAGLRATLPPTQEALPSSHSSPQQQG

B1: IL-18 variant K53H, S55Q (ligand)
chain: YFGKLESKLSVIRNLNDQVLFIDQGNRPLFEDMTDSDMRDNAPRTIFIISMYHDQQPRGMAVTISVKSEKISTLSSENKIISFKEMNPPDNIKDTKSDIIFFQRSVPGHDNKMQFESSSYEGYFLASEKERDLFKLILKKEDELGDRSIMFTVQNED
B2: IL-18 variant K53N, S55H, H109F (ligand)
chain: B1 chain with H53N, Q55H, H109F
B3: IL-18 variant K53H, S55M (ligand)
chain: B1 chain with Q55M
B4: IL-18 variant K53L, S55E (ligand)
chain: B1 chain with H53L, Q55E
B5: IL-18 variant K53G, S55V, R104Y, H109N (ligand)
chain: B1 chain with H53G, Q55V, R104Y, H109N
B6: IL-18 variant K53H, S55R (ligand)
chain: B1 chain with Q55R
B7: IL-18 variant K53D, S55N, H109I (ligand)
chain: B1 chain with H53D, Q55N, H109I
B8: IL-18 variant K53H, S55Y, Q56H (ligand)
chain: B1 chain with Q55Y, Q56H
B9: IL-18 variant K53L, S55G (ligand)
chain: B1 chain with H53L, Q55G
B10: IL-18 variant K53T, S55G, P107A, H109Q (ligand)
chain: B1 chain with H53T, Q55G, P107A, H109Q
B11: IL-18 variant T34E, N41D, K53N, S55R (ligand)
chain: B1 chain with T34E, N41D, H53N, Q55R
B12: IL-18 variant S36W, D37E, D40F, N41I, K53D, S55N (ligand)
chain: B1 chain with S36W, D37E, D40F, N41I, H53D, Q55N
B13: IL-18 variant K53D, S55T, H109I (ligand)
chain: B1 chain with H53D, Q55T, H109I
B14: IL-18 variant K53H, S55M, T63S (ligand)
chain: B1 chain with Q55M, T63S
B15: IL-18 variant K53D, S55E (ligand)
chain: B1 chain with H53D, Q55E
B16: IL-18 variant K53S, S55F, T63S, R104K, H109Y (ligand)
chain: B1 chain with H53S, Q55F, T63S, R104K, H109Y
B17: IL-18 variant K53H, S55G (ligand)
chain: B1 chain with Q55G

Legend:
[1] = biological target: T1, IL-18 receptors on HEK-Blue IL-18 …; assay: cell-based or functional assay
[2] = biological target: T2, interleukin 18 binding protein (IL-18BP); assay: cell-based or functional assay

| Binder | HEK-Blue activity, No BP, DF-10000 [1] | HEK-Blue activity, No BP, DF-100,000 [1] | HEK-Blue activity, No BP, DF-1,000,000 [1] | HEK-Blue activity, +100 nM BP, DF-10000 [2] | HEK-Blue activity, +100 nM BP, DF-100,000 [2] | HEK-Blue activity, +100 nM BP, DF-1,000,000 [2] | Ratio (-BP/+BP), DF-10000 [2] | Ratio (-BP/+BP), DF-100,000 [2] | Ratio (-BP/+BP), DF-1,000,000 [2] |
| --- | --- | --- | --- | --- | --- | --- | --- | --- | --- |
| B1 | 0.14 | 0.1 | 0.09 | 0.14 | 0.1 | 0.1 | 1.03 | 1.03 | 0.91 |
| B2 | 0.13 | 0.1 | 0.1 | 0.11 | 0.09 | 0.09 | 1.17 | 1.06 | 1.17 |
| B3 | 0.13 | 0.1 | 0.09 | 0.12 | 0.09 | 0.09 | 1.12 | 1.03 | 1.09 |
| B4 | 0.14 | 0.1 | 0.09 | 0.12 | 0.09 | 0.09 | 1.12 | 1.07 | 1.01 |
| B5 | 0.13 | 0.12 | 0.1 | 0.11 | 0.14 | 0.1 | 1.17 | 0.9 | 1.02 |
| B6 | 0.12 | 0.1 | 0.09 | 0.12 | 0.09 | 0.09 | 0.97 | 1.09 | 1 |
| B7 | 0.13 | 0.12 | 0.09 | 0.1 | 0.09 | 0.09 | 1.28 | 1.42 | 0.99 |
| B8 | 0.12 | 0.1 | 0.09 | 0.12 | 0.09 | 0.09 | 1.05 | 1.03 | 0.96 |
| B9 | 0.12 | 0.1 | 0.09 | 0.14 | 0.11 | 0.11 | 0.87 | 0.92 | 0.89 |
| B10 | 0.13 | 0.1 | 0.11 | 0.12 | 0.16 | 0.12 | 1.1 | 0.63 | 0.87 |
| B11 | 0.14 | 0.1 | 0.09 | 0.1 | 0.13 | 0.09 | 1.42 | 0.74 | 1.05 |
| B12 | 0.13 | 0.14 | 0.13 | 0.2 | 0.13 | 0.12 | 0.68 | 1.07 | 1.05 |
| B13 | 0.13 | 0.09 | 0.08 | 0.12 | 0.09 | 0.09 | 1.1 | 0.97 | 0.98 |
| B14 | 0.13 | 0.1 | 0.09 | 0.18 | 0.12 | 0.11 | 0.72 | 0.83 | 0.83 |
| B15 | 0.13 | 0.09 | 0.09 | 0.11 | 0.09 | 0.08 | 1.22 | 1.07 | 1.08 |
| B16 | 0.14 | 0.09 | 0.09 | 0.13 | 0.09 | 0.09 | 1.03 | 1 | 0.99 |
| B17 | 0.13 | 0.1 | 0.08 | 0.12 | 0.09 | 0.08 | 1.08 | 1.04 | 1.02 |

From patent publication US20240182536A1 (MURAL ONCOLOGY, published 2024)
